Data taken from patent US11638741B2, “Composition for treating cancer or inhibiting cancer metastasis, including TFG or TFMG nanoparticles” (KYUNGPOOK NATIONAL UNIVERSITY INDUSTRY-ACADEMIC COOPERATION …, priority 2019, dated 2023).

Tests used:
[1] = system: Lewis lung carcinoma (LLC); test: Enhancement of cisplatin treatment effects in LLC allograft model (tumor size, survival); assay type: in vivo, C57BL/6J mice; conditions: for inhibiting the growth of the tumor: nanoparticles 100 nM (days 7, 10, 13) administered together with cisplatin 3 mg/kg (days 7, 12), on day 13
Protocol: In order to confirm whether the treatment effects of a conventionally used anticancer agent may be enhanced by normalizing abnormal blood vessels in a tumor, 100 nM of the TFG nanoparticles or TFMG nanoparticles was injected into the tail vein in a tumor animal model prepared in the same manner as in Example 2.1 on days 7, 10, and 13, cisplatin was injected at a concentration of 3 mg/kg on days 7 and 12, and the survival proportion was measured. An equal amount of phosphate buffered saline was injected into a negative control (Con), and an equal amount of cisplatin was injected alone into a positive control (Cis). Then, the tumor size was confirmed by obtaining tumors on days 9, 11, and 13. The results are illustrated in FIGS. 8 and 9.

[2] = system: Lewis lung carcinoma (LLC); test: Inhibition of tumor metastasis into lungs and inguinal lymph nodes, LLC allograft model after tumor removal surgery; assay type: in vivo, C57BL/6J mice; conditions: compared with the control; for lymph node metastasis inhibition rate: inguinal lymph nodes, IHC, day 28; for metastasis of the tumor into the lungs inhibited: tumor removal surgery day 14, metastasis confirmed day 28
Protocol: In order to confirm whether the TFG nanoparticles or TFMG nanoparticles affected the inhibition of metastasis of tumor, a tumor animal model was prepared in the same manner as in Example 2.1, and then the TFG nanoparticles or TFMG nanoparticles were injected. Then, a tumor removal surgery was performed on day 14, and it was confirmed whether the tumor metastasized into the lungs and the inguinal lymph nodes (LNs) on day 28. The metastasis into the inguinal lymph nodes was confirmed using immunohistochemistry (IHC) analyses. More specifically, the lymph nodes obtained to confirm cytokeratin positive tumor cells were fixed with 3.7% paraformaldehyde (PFA), and then dehydrated by treatment with a 10 to 40% sucrose solution at each step. Then, after the permeability of cells was increased by treatment with 0.3% Triton X-100 and a blocking process was performed using a bovine serum albumin (BSA), the lymph nodes were treated with rat anti-CD31 (BD Biosciences), mouse anti-α-SMA (Abcam), mouse anti-pimonidazole (HPI), mouse anti-cytokeratin II (Millipore), or rabbit anti-LYVE-1 (Angiobio) antibodies, and reacted at 4° C. for 16 hours. Then, unbound antibodies were washed using phosphate buffered saline, and then treated with Alexa Fluor 488-, 568-, or 647-conjugated anti-mouse IgG (Invitrogen), Alexa Fluor 594- or 647-conjugated anti-rat IgG (Invitrogen), Alexa Fluor 488-, 568-, or 647-conjugated anti-rabbit IgG (Invitrogen) antibodies that were secondary antibodies to a fluorescent marker, and reacted at room temperature for 1 hour. Then, finally, cellular nuclei were stained by treatment with Hoechst33258 (Invitrogen) for 1 minute, and then observed using a confocal microscope, and a fluorescence value was quantified using ImageJ. In order to show a significant difference between the corresponding groups in at least 3 of all the experimental result values, an ANOVA verification was performed, and only values with statistical significance of P-values <0.05 were shown as the average value±standard deviations (SD). The results are illustrated in FIGS. 4 to 5.

[3] = system: Lewis lung carcinoma (LLC); test: Inhibition of tumor proliferation and survival in LLC allograft tumor animal model; assay type: in vivo, C57BL/6J mice; conditions: 100 nM into the tail vein on days 7, 10, 13; for survival proportion: FIG. 3; for tumor growth inhibition effect: compared with the control, tumor obtained on day 14
Protocol: In order to confirm the effects of the TFG nanoparticles or TFMG nanoparticles on the proliferation of cancer cells, after a tumor animal model was prepared by allografting 2 to 5×10^5 cells of Lewis lung carcinoma (LLC) as a murine lung cancer cell line into 6- to 7-week-old C57BL/6J mice, 100 nM of the TFG nanoparticles or TFMG nanoparticles was injected into the tail vein on days 7, 10, and 13, and then the size and survival proportion of the tumor were observed by obtaining the tumor on day 14. The tumor size was measured by substitution into the formula “0.5×A×B^2 (A: diameter in the longest direction, and B: diameter in a direction vertical to the longest direction).” An equal amount of phosphate buffered saline was administered to a control (Con). Animal care and all experimental procedures were performed in accordance with the laws and regulations for animal experiments. In order to show a significant difference between the corresponding groups in at least 3 of all the experimental result values, an ANOVA verification was performed, and only values with statistical significance of P-values <0.05 were shown as the average value±standard deviations (SD). The results are illustrated in FIGS. 1 to 3.

[4] = system: blood vessels in a tumor (Lewis lung carcinoma (LLC)); test: Structure and function of blood vessels in LLC tumor (IHC, pimonidazole hypoxia staining); assay type: in vivo, C57BL/6J mice; conditions: FIG. 7
Protocol: The structure and function of blood vessels in a tumor were analyzed using the tumor obtained in the same manner as in Example 2.1. More specifically, the obtained tumor was observed using a confocal microscope after fluorescent staining was performed through IHC analyses in the same manner as in Example 2.2. In order to measure the hypoxic state inside the tumor, 60 mg/kg of Hypoxyprobe-1™ (pimonidazole hydrochloride; PIMO, HPI) was administered through intraperitoneal injection, and 90 minutes later, the mouse was sacrificed and the tumor extracted. The extracted tumor was incised, and then stained with mouse anti-hypoxyprobe antibody (HPI), Alexa Fluor 488-, 568-, or 647-conjugated anti-mouse IgG (Invitrogen), and in order to measure the degree of leakage of blood vessels in the tumor, 40 mg/kg of Hoechst33258 (Invitrogen) was intravenously injected 5 minutes before the mouse was sacrificed. The prepared sample was obtained using a confocal microscope. The results are illustrated in FIGS. 6 and 7.

[5] = system: naturally occurring tumor model (MMTV-PyMT gene transplanted mice); test: Inhibition of tumor metastasis in naturally occurring tumor model; assay type: in vivo; conditions: compared to the control; 100 nM into tail veins at 12 weeks, confirmed at 15 weeks
From the text: The results are illustrated in FIG. 12.

[6] = system: naturally occurring tumor model (MMTV-PyMT gene transplanted mice); test: Inhibition of tumor proliferation in naturally occurring tumor model; assay type: in vivo; conditions: 100 nM into tail veins of 12-week-old mice; tumors obtained at 15 weeks
Protocol: More specifically, the sizes of all the distinct nodules of 12-week-old mice were measured, and the mice were grouped according to the sizes of the tumors. Then, 100 nM of the TFG nanoparticles or TFMG nanoparticles was injected into their tail veins, and the tumors were obtained when the mice became 15 weeks old. Then, the sizes of the tumors were measured in the same manner as in Example 2.1. The results are illustrated in FIG. 11.

Molecule: N.N.[Cl][Pt][Cl] [cisplatin, reference compound]
- growth of the tumor inhibited ([1]; cisplatin administered alone, 3 mg/kg on days 7 and 12 (positive control)): 62.6%

B1: TFMG nanoparticles: a TRAP-ferritin monomer fragment-linker-PC-Gla fusion polypeptide; a polypeptide represented by SEQ ID NO: 2 (protein)
chain: MGGTTFLLRNASGHMSSQIRQNYSTDVEAAVNSLVNLYLQASYTYLSLGFYFDRDDVALEGVSHFFRELAEEKREGYERLLKMQNQRGGRIFLQDIKKPAEDEWGKTPDAMKAAMALEKKLNQALLDLHALGSARTDPHLCDFLETHFLDEEVKLIKKMGDHLTNLHRLGGGSEFVDGGGSGTSGPLGLAGANSFLEELRHSSLERECIEEICDFEEAKEIFQNVDDTLAFWSKHVLEHHHHHH
modifications: nanoparticle assembly; TFMG nanoparticle
- lymph node metastasis inhibition rate [2]: 78.1%
- metastasis of the tumor into the lungs inhibited [2]: 86.4%
- survival proportion [3]: increased
- tumor growth inhibition effect [3]: 27.0%
- blood vessels covered with α-smooth muscle actin positive pericytes [4]: increased
- metastasis inhibition rate [5]: 93.6%
- number of nodules with tumors decreased [6]: 59%
- sizes of the tumors decreased [6]: 87.2%
- inhibiting the growth of the tumor [1]: 94.3%

B2: TFG nanoparticles: a TRAP-ferritin monomer fragment-PC-Gla fusion polypeptide; a polypeptide represented by SEQ ID NO: 1 (protein)
chain: MGGTTFLLRNASGHMSSQIRQNYSTDVEAAVNSLVNLYLQASYTYLSLGFYFDRDDVALEGVSHFFRELAEEKREGYERLLKMQNQRGGRIFLQDIKKPAEDEWGKTPDAMKAAMALEKKLNQALLDLHALGSARTDPHLCDFLETHFLDEEVKLIKKMGDHLTNLHRLGGGSEFVDGGGSGTSANSFLEELRHSSLERECIEEICDFEEAKEIFQNVDDTLAFWSKHVLEHHHHHH
modifications: nanoparticle assembly; TFG nanoparticle
- lymph node metastasis inhibition rate [2]: 76.9%
- metastasis of the tumor into the lungs inhibited [2]: 83.4%
- survival proportion [3]: increased
- tumor growth inhibition effect [3]: 28.2%
- blood vessels covered with α-smooth muscle actin positive pericytes [4]: increased
- metastasis inhibition rate [5]: 93.6%
- number of nodules with tumors decreased [6]: 39.1%
- sizes of the tumors decreased [6]: 85%
- inhibiting the growth of the tumor [1]: 96.2%
